For this assay, the target named is MBP-PrLD (C-terminal half of FCA containing prion-like domains) (Arabidopsis). As to the kind of experiment: SEC-MALS.

In turn, “MBP-PrLD (C-terminal half of FCA containing prion-like domains) (domain or fragment)” returned a stoichiometry N of over 100 molecules.

(Values after article doi:10.1101/2024.04.06.588283.)
